doi:10.1101/2021.07.07.451367 (bioRxiv, 2021)

Biological target: T1, mNG::aPKC (C. elegans (endogenous in zygotes), UniProt Q19266 1-597)
T1 sequence (looked up): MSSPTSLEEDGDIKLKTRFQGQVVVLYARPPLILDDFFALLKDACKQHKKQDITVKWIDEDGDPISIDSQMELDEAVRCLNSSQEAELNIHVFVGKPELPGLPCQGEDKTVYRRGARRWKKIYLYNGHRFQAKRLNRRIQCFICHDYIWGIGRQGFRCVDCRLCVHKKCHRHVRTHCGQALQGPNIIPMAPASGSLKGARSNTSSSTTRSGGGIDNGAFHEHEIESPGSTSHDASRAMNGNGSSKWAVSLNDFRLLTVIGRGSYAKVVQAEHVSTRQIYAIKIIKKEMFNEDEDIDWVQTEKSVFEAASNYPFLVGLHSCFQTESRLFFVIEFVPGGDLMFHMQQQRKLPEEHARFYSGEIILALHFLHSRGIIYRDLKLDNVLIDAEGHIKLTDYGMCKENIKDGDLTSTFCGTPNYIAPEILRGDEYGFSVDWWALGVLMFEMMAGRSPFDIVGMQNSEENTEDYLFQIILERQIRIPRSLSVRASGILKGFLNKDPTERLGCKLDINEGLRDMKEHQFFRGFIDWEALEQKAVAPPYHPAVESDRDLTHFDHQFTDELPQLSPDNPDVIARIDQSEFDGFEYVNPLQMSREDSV
Experiment: single-cell single-molecule pull-down

B1: PAR-6::HaloTag (natural protein, C. elegans (endogenous in zygotes), UniProt Q9NAN2 1-309, looked up)
chain: MSYNGSYHQNHHSTLQVKSKFDSEWRRFSIPMHSASGVSYDGFRSLVEKLHHLESVQFTLCYNSTGGDLLPITNDDNLRKSFESARPLLRLLIQRRGESWEEKYGYGTDSDKRWKGISSLMAQKPPKRSYSISNPEDFRQVSAIIDVDIVPEAHRRVRLCKHGQERPLGFYIRDGTSVRVTERGVVKVSGIFISRLVDGGLAESTGLLGVNDEVLEVNGIEVLGKTLDQVTDMMVANAHNLIITVKPANQRNTLSRGPSQQGTPNASEMSAATAAATGGIQRPMKMNGSSDGSYHPKQHDANDSDSGED
modifications: HaloTag labelled with HaloTag ligand dye JF646, JFX646 or JFX650
  koff: 0.002 s⁻¹
